The numbers were not newly measured in PMC6082625, which cites them from elsewhere.

Data set [1] addresses Hsp90 (Homo sapiens) (UniProt P07900).
Data set [2] addresses J-domain protein (DnaJ) J domain (Escherichia coli) (UniProt P08622).
For data set [3], the target named is Hsp90 (Homo sapiens) (UniProt P07900). This is another data set of the same source.

Like-named read-outs stand apart in the source and are kept apart here.

Chain of p23 (Q15185 whole entry): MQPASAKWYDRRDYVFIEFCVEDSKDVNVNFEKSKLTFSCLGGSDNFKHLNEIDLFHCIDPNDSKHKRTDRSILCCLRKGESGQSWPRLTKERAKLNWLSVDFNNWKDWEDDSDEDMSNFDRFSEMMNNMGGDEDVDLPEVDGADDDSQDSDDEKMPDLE
Chain of Aha1 (O95433 whole entry): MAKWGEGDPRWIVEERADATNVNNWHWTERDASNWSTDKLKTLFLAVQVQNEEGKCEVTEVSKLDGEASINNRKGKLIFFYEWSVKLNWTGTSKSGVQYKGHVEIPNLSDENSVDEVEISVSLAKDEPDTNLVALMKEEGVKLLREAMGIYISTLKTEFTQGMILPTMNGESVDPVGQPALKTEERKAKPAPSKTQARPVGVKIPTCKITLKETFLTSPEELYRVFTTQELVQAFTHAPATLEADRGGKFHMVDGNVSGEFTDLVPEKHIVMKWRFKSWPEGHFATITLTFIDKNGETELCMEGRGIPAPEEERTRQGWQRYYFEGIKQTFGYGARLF
Chain of J-domain protein (DnaJ) J domain (Escherichia coli) (P08622 1-75): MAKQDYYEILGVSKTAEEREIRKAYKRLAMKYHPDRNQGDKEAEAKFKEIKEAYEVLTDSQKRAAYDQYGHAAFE
Chain of Hsp70 (DnaK) (P0A6Y8 2-638): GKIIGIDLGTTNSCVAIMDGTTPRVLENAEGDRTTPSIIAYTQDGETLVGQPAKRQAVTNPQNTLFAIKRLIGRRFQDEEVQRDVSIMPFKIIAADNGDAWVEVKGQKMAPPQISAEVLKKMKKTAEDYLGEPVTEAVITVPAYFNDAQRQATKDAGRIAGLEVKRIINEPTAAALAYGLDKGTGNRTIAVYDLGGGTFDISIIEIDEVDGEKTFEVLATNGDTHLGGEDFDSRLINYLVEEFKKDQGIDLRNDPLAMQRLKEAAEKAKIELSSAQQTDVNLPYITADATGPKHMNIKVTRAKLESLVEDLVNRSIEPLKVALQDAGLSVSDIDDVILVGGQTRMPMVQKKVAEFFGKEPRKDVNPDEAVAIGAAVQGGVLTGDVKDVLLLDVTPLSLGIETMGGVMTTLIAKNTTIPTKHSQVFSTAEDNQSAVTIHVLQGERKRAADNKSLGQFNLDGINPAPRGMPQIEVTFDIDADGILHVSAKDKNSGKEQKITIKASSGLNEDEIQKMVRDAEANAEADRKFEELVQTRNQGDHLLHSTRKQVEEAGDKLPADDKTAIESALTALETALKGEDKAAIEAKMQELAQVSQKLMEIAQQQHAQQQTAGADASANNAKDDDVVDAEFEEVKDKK

As usually defined, the Kd is the equilibrium constant for the complex coming apart. In the case of Aha1 (from UniProt O95433), in the data set with Hsp90 (Homo sapiens) [1], the equilibrium dissociation constant (Kd) is 700 nM. As to Hsp70 (DnaK) (from UniProt P0A6Y8), the Kd in data set [2] is 10000 nM. As to p23 (from UniProt Q15185), in the data set with Hsp90 (Homo sapiens) [3], the dissociation constant Kd is 1000 nM.
